Here are results for 18 molecules from US20260042834A1 (HBM ALPHA THERAPEUTICS, published 2026).

The target in the experiment is T1, biotinylated CRH (human and mouse, not fully specified; biotinylated, position not stated).
T1 construct: also called Biotin-CRH; biotin-labeled CRH
T1 peptide: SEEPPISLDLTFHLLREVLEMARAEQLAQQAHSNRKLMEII
Description: Octet BLI, biotinylated CRH on SA sensor. As for the experimental part:
Octet® Red 96e was used for affinity measurement. Octet® running buffer was prepared by diluting kinetics buffer 10× (Fortebio, Cat #18-1105) in PBS according to the manufacturer's instructions. Two columns of SA sensors (Fortebio, Cat #18-5019) were hydrated in running buffer for 10 mins, one for ligand capturing and the other for reference. Antibodies were 2-fold diluted and added into a 96-well plate. […] After a 60-second baseline step, sensors were dipped into analyte and buffer wells successively, with the association and dissociation time of 180 seconds and 800 seconds, respectively. […] Signals of reference wells and reference sensors were subtracted by selecting “Double reference” before data fitting.
(In general: Biolayer interferometry detects binding as a change in optical thickness at a sensor tip.)

B1: PR005656 (antibody, human IgG1, kappa, V domains shown)
VH: EVQLVESGGVLVQPGGSLRLSCAASGFTFSSYWMTWVRQAPGKGLEWVANIKQEGSEKYYVDSVKGRFTISRDNAKNSLFLQMNSLRAEDTAVYYCARTLIFDYWGQGTLVTVSS
VL: DIVMTQSPLSLPVTPGEPASISCRSSQSLLHSTGYNSLEWYLQKPGQSPQLLIYLGSNRASGVPDRFSGSGSGTDFTLKISRVEAEDVGIYYCMQTLQTPITFGQGTRLEIKR
notes: PTM-removal variant of PR004290
B1 had a Kd of 0.0627 nM, a koff of 4.55e-05 s⁻¹ and a kon of 726000 M⁻¹ s⁻¹.

B2: PR005657 (antibody, human IgG1, kappa, V domains shown)
VH: EVQLVESGGVLVQPGGSLRLSCAASGFTFSSYWMTWVRQAPGKGLEWVANIKQDASEKYYVDSVKGRFTISRDNAKNSLFLQMNSLRAEDTAVYYCARTLIFDYWGQGTLVTVSS
VL: DIVMTQSPLSLPVTPGEPASISCRSSQSLLHSTGYNSLEWYLQKPGQSPQLLIYLGSNRASGVPDRFSGSGSGTDFTLKISRVEAEDVGIYYCMQTLQTPITFGQGTRLEIKR
notes: as for B1
The molecule B2 had a Kd of 0.0913 nM.

B3: PR006149 (antibody, human IgG1, kappa, V domains shown)
VH: EVQLVESGGVLVQPGGSLRLSCAASGFTFSSYWMTWVRQAPGKGLEWVANIKQDASEKYYVDSVKGRFTISRDNAKNSLFLQMNSLRAEDTAVYYCARTLIFDYWGQGTLVTVSS
VL: DIVMTQSPLSLPVTPGEPASISCRSSQSLLHSTGYSSLEWYLQKPGQSPQLLIYLGSNRASGVPDRFSGSGSGTDFTLKISRVEAEDVGIYYCMQTLQTPITFGQGTRLEIKR
notes: as for B1
B3 showed a Kd of 0.16 nM, a koff of 7.78e-05 s⁻¹ and a kon of 487000 M⁻¹ s⁻¹.

B4: PR006148 (antibody, human IgG1, kappa, V domains shown)
VH: EVQLVESGGVLVQPGGSLRLSCAASGFTFSSYWMTWVRQAPGKGLEWVANIKQDASEKYYVDSVKGRFTISRDNAKNSLFLQMNSLRAEDTAVYYCARTLIFDYWGQGTLVTVSS
VL: DIVMTQSPLSLPVTPGEPASISCRSSQSLLHSTGYNPLEWYLQKPGQSPQLLIYLGSNRASGVPDRFSGSGSGTDFTLKISRVEAEDVGIYYCMQTLQTPITFGQGTRLEIKR
notes: as for B1
As to B4, the Kd is 0.106 nM. This lies in the sub-nanomolar range.

B5: PR006150 (antibody, human IgG1, kappa, V domains shown)
VH: EVQLVESGGVLVQPGGSLRLSCAASGFTFSSYWMTWVRQAPGKGLEWVANIKQDSSEKYYVDSVKGRFTISRDNAKNSLFLQMNSLRAEDTAVYYCARTLIFDYWGQGTLVTVSS
VL: DIVMTQSPLSLPVTPGEPASISCRSSQSLLHSTGYDSLEWYLQKPGQSPQLLIYLGSNRASGVPDRFSGSGSGTDFTLKISRVEAEDVGIYYCMQTLQTPITFGQGTRLEIKR
notes: as for B1
B5 registered a Kd of 0.102 nM, an off-rate (koff) of 5.66e-05 s⁻¹ and a kon of 555000 M⁻¹ s⁻¹.

B6: PR006146 (antibody, human IgG1, kappa, V domains shown)
VH: EVQLVESGGVLVQPGGSLRLSCAASGFTFSSYWMTWVRQAPGKGLEWVANIKQDASEKYYVDSVKGRFTISRDNAKNSLFLQMNSLRAEDTAVYYCARTLIFDYWGQGTLVTVSS
VL: DIVMTQSPLSLPVTPGEPASISCRSSQSLLHSTGYDSLEWYLQKPGQSPQLLIYLGSNRASGVPDRFSGSGSGTDFTLKISRVEAEDVGIYYCMQTLQTPITFGQGTRLEIKR
notes: as for B1
With B6, the Kd was found to be 0.109 nM, the koff stood at 4.84e-05 s⁻¹ and the kon worked out at 445000 M⁻¹ s⁻¹.

B7: PR005658 (antibody, human IgG1, kappa, V domains shown)
VH: EVQLVESGGVLVQPGGSLRLSCAASGFTFSSYWMTWVRQAPGKGLEWVANIKQDGSEKYYVDSVKGRFTISRDNAKNSLFLQMNSLRAEDTAVYYCARTLIFDYWGQGTLVTVSS
VL: DIVMTQSPLSLPVTPGEPASISCRSSQSLLHSTGYQSLEWYLQKPGQSPQLLIYLGSNRASGVPDRFSGSGSGTDFTLKISRVEAEDVGIYYCMQTLQTPITFGQGTRLEIKR
notes: as for B1
The molecule B7 returned a Kd of 0.179 nM, a koff of 9.11e-05 s⁻¹ and a kon of 509000 M⁻¹ s⁻¹.

B8: PR006143 (antibody, human IgG1, kappa, V domains shown)
VH: EVQLVESGGVLVQPGGSLRLSCAASGFTFSSYWMTWVRQAPGKGLEWVANIKQEGSEKYYVDSVKGRFTISRDNAKNSLFLQMNSLRAEDTAVYYCARTLIFDYWGQGTLVTVSS
VL: DIVMTQSPLSLPVTPGEPASISCRSSQSLLHSTGYHSLEWYLQKPGQSPQLLIYLGSNRASGVPDRFSGSGSGTDFTLKISRVEAEDVGIYYCMQTLQTPITFGQGTRLEIKR
notes: as for B1
In turn, B8 displayed an equilibrium dissociation constant (Kd) of 0.0623 nM, a koff of 2.85e-05 s⁻¹ and a kon of 457000 M⁻¹ s⁻¹.

B9: PR006151 (antibody, human IgG1, kappa, V domains shown)
VH: EVQLVESGGVLVQPGGSLRLSCAASGFTFSSYWMTWVRQAPGKGLEWVANIKQDSSEKYYVDSVKGRFTISRDNAKNSLFLQMNSLRAEDTAVYYCARTLIFDYWGQGTLVTVSS
VL: DIVMTQSPLSLPVTPGEPASISCRSSQSLLHSTGYHSLEWYLQKPGQSPQLLIYLGSNRASGVPDRFSGSGSGTDFTLKISRVEAEDVGIYYCMQTLQTPITFGQGTRLEIKR
notes: as for B1
Molecule B9 registered a Kd of 0.16 nM, a dissociation rate constant (koff) of 8e-05 s⁻¹ and a kon of 500000 M⁻¹ s⁻¹.

B10: PR006145 (antibody, human IgG1, kappa, V domains shown)
VH: EVQLVESGGVLVQPGGSLRLSCAASGFTFSSYWMTWVRQAPGKGLEWVANIKQEGSEKYYVDSVKGRFTISRDNAKNSLFLQMNSLRAEDTAVYYCARTLIFDYWGQGTLVTVSS
VL: DIVMTQSPLSLPVTPGEPASISCRSSQSLLHSTGYSSLEWYLQKPGQSPQLLIYLGSNRASGVPDRFSGSGSGTDFTLKISRVEAEDVGIYYCMQTLQTPITFGQGTRLEIKR
notes: as for B1
In turn, B10 displayed a Kd of 0.305 nM, a koff of 6.75e-05 s⁻¹ and a kon of 222000 M⁻¹ s⁻¹.

B11: PR006144 (antibody, human IgG1, kappa, V domains shown)
VH: EVQLVESGGVLVQPGGSLRLSCAASGFTFSSYWMTWVRQAPGKGLEWVANIKQEGSEKYYVDSVKGRFTISRDNAKNSLFLQMNSLRAEDTAVYYCARTLIFDYWGQGTLVTVSS
VL: DIVMTQSPLSLPVTPGEPASISCRSSQSLLHSTGYNPLEWYLQKPGQSPQLLIYLGSNRASGVPDRFSGSGSGTDFTLKISRVEAEDVGIYYCMQTLQTPITFGQGTRLEIKR
notes: as for B1
B11 gave a Kd of 0.0895 nM, a koff of 4.47e-05 s⁻¹ and a kon of 499000 M⁻¹ s⁻¹.

B12: PR006147 (antibody, human IgG1, kappa, V domains shown)
VH: EVQLVESGGVLVQPGGSLRLSCAASGFTFSSYWMTWVRQAPGKGLEWVANIKQDASEKYYVDSVKGRFTISRDNAKNSLFLQMNSLRAEDTAVYYCARTLIFDYWGQGTLVTVSS
VL: DIVMTQSPLSLPVTPGEPASISCRSSQSLLHSTGYHSLEWYLQKPGQSPQLLIYLGSNRASGVPDRFSGSGSGTDFTLKISRVEAEDVGIYYCMQTLQTPITFGQGTRLEIKR
notes: as for B1
B12 yielded a Kd of 0.142 nM, an off-rate constant (koff) of 6.96e-05 s⁻¹ and a kon of 489000 M⁻¹ s⁻¹.

B13: PR006142 (antibody, human IgG1, kappa, V domains shown)
VH: EVQLVESGGVLVQPGGSLRLSCAASGFTFSSYWMTWVRQAPGKGLEWVANIKQEGSEKYYVDSVKGRFTISRDNAKNSLFLQMNSLRAEDTAVYYCARTLIFDYWGQGTLVTVSS
VL: DIVMTQSPLSLPVTPGEPASISCRSSQSLLHSTGYDSLEWYLQKPGQSPQLLIYLGSNRASGVPDRFSGSGSGTDFTLKISRVEAEDVGIYYCMQTLQTPITFGQGTRLEIKR
notes: as for B1
For B13, the affinity, expressed as Kd, was 0.123 nM; the koff amounted to 4.08e-05 s⁻¹; the kon came out at 333000 M⁻¹ s⁻¹.

B14: PR006153 (antibody, human IgG1, kappa, V domains shown)
VH: EVQLVESGGVLVQPGGSLRLSCAASGFTFSSYWMTWVRQAPGKGLEWVANIKQDSSEKYYVDSVKGRFTISRDNAKNSLFLQMNSLRAEDTAVYYCARTLIFDYWGQGTLVTVSS
VL: DIVMTQSPLSLPVTPGEPASISCRSSQSLLHSTGYSSLEWYLQKPGQSPQLLIYLGSNRASGVPDRFSGSGSGTDFTLKISRVEAEDVGIYYCMQTLQTPITFGQGTRLEIKR
notes: as for B1
Take B14: the affinity, expressed as Kd, was 0.171 nM; the koff was 8.36e-05 s⁻¹; the kon was 487000 M⁻¹ s⁻¹.

B15: PR005662 (antibody, human IgG1, kappa, V domains shown)
VH: EVQLVESGGVLVQPGGSLRLSCAASGFTFSSYWMTWVRQAPGKGLEWVANIKQDASEKYYVDSVKGRFTISRDNAKNSLFLQMNSLRAEDTAVYYCARTLIFDYWGQGTLVTVSS
VL: DIVMTQSPLSLPVTPGEPASISCRSSQSLLHSTGYQSLEWYLQKPGQSPQLLIYLGSNRASGVPDRFSGSGSGTDFTLKISRVEAEDVGIYYCMQTLQTPITFGQGTRLEIKR
notes: as for B1
The molecule B15 yielded a Kd of 0.209 nM, a koff of 8.27e-05 s⁻¹ and a kon of 396000 M⁻¹ s⁻¹.

B16: PR302334-10 (antibody, human IgG1, kappa, V domains shown)
VH: EVQLVESGGGLVQPGGSLRLSCAASGFTFSTYAMSWVRQAPGKGLEWVASIRSGGTTYYPDSVKGRFTISRDNSKNTLYLQMNSLRAEDTAVYYCTRGIDWGQGTTVTVSS
VL: DIVMTQSPDSLAVSLGERATINCKASQSVNNDVAWYQQKPGQPPRLLIYYASNRYTGVPDRFSGSGSGTDFTLTISSLQAEDLAVYFCQQDYSSWTFGGGTKVEIKR
notes: Humanized variant of PR302334
As for B16, the Kd is < 0.001 nM, the koff is < 1e-07 s⁻¹ and the kon is 6840 M⁻¹ s⁻¹.

B17: PR302334-8 (antibody, human IgG1, kappa, V domains shown)
VH: EVQLVESGGGLVQPGGSLRLSCAASGFTFSTYAMSWVRQAPGKGLEWVASIRSGGTTYYPDSVKGRFTISRDNSKNTLYLQMNSLRAEDTAVYYCTRGIDWGQGTTVTVSS
VL: EIVMTQSPATLSVSPGERATLSCKASQSVNNDVAWYQQKPGQAPRLLIYYASNRYTGIPARFSGSGSGTEFTLTISSLQSEDLAVYFCQQDYSSWTFGGGTKVEIKR
notes: Humanized variant of PR302334
For the molecule B17, the Kd was < 0.001 nM, the koff was < 1e-07 s⁻¹ and the on-rate (kon) came out at 14700 M⁻¹ s⁻¹.

B18: PR302334-24 (antibody, human IgG1, kappa, V domains shown)
VH: EVQLVESGGGLVKPGGSLRLSCAASGFTFSTYAMSWVRQAPGKGLEWVASIRSGGTTYYPDSVKGRFTISRDNAKNSLYLQMNSLRAEDTAVYYCTRGIDWGQGTTVTVSS
VL: DIVMTQSPDSLAVSLGERATINCKASQSVNNDVAWYQQKPGQPPRLLIYYASNRYTGVPDRFSGSGSGTDFTLTISSLQAEDLAVYFCQQDYSSWTFGGGTKVEIKR
notes: Humanized variant of PR302334
In the case of B18, the Kd is < 0.001 nM, the dissociation rate constant (koff) was < 1e-07 s⁻¹ and the kon came to 606000 M⁻¹ s⁻¹.

As usually defined, the Kd is a measure of binding affinity in units of concentration. Higher therefore signals weaker binding. As a reminder, the koff is a measure of how fast the partners let go of each other. In general, kon refers to a measure of how fast the partners come together.
